Laboratory results taken from article PMC314469, “Protein Interaction Networks by Proteome Peptide Scanning” (PLoS Biology, 2004).

T1: amphyphisin SH3 (AMPH_HUMAN), P49418
T1 chain: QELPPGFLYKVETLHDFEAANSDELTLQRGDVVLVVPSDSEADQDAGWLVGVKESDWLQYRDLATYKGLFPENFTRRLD


Experiments:
[1] = molecular target: T1, amphyphisin SH3 (AMPH_HUMAN), P49418; test: SPOT array
[2] = molecular target: endophilin SH3 (SH3G2_HUMAN), Q99962; test: SPOT array

normalised SPOT signal, Boehringer light units (BLU); mean over the file's lines of this peptide [1] | normalised SPOT signal, Boehringer light units (BLU); mean over the file's lines of this peptide [2] | Binder
671 | 120 | GASSIARPFRRDSQ [Q9Y6N3 202-215]
155 | 253 | GDEPLPRPPRGAPH [Q92529 130-143]
18.6 | 1210 | GARSPKRPRLQLPG [Q9BWN1 26-39]
0 | 39.5 | GAKGPRRPGEEAEL [O15417 267-280]
6.3 | 2000 | GAPGPRRPFQQKPL [Q9BYB0 718-731]
1260 | 148 | GAFQPGRPLRVVAT [O60560 190-203]
1500 | 213 | GAWPLKRPGRISSQ [Q9NXX3 159-172]
93.5 | 13400 | AKLFPGRPPVKKLL [CAD39032 203-217]
441 | 78.6 | GALHPPRPGRGLGQ [Q9UHX5 114-127]

Further lines, the binder ahead of its results:

Binder | normalised SPOT signal, Boehringer light units (BLU); mean over the file's lines of this peptide [1] | normalised SPOT signal, Boehringer light units (BLU); mean over the file's lines of this peptide [2]
GDSKLFRPRRPRSS [O94820 218-231] | 970 | 233
GAGSPARPPSPRLD [BAC04581 11-25] | 339 | 15300
GSVRPARPERRLRS [Q9Y5B0 72-85] | 12500 | 18700
GDAPPPRPPPPVRP [CAD38936 189-203] | 1250 | 14700
GAGQPRRPEAEPGQ [Q96AA2 6283-6296] | 10.5 | -0
GEDVLARPQRFAQL [Q96LA8 243-256] | 194 | 7.6
GALPPRRPERPVGP [Q9NYR0 415-428] | 3480 | 13800
GDPAPSRPLRAHFL [Q9P244 448-461] | 9150 | 5050
